# According to US20230293685A1:
# Tests used:
# [1] = target: PD-1 (programmed cell death 1; CD279) on tumor infiltrating lymphocytes (human) (UniProt Q15116); experiment: positive magnetic selection of TIL with M1H4-coupled microbeads
# [2] = target: PD-1 (programmed cell death 1; CD279) on tumor infiltrating lymphocytes (human) (UniProt Q15116); experiment: flow cytometry, tumour digest OV8074 stained with anti-PD-1 clone EH12.2H7; percent of CD3+ cells
# [3] = target: PD-1 (programmed cell death 1; CD279) on tumor infiltrating lymphocytes (human) (UniProt Q15116); experiment: flow cytometry, tumour digest M1156 stained with anti-PD-1 clone EH12.2H7; percent of CD3+ cells
# [4] = target: PD-1 (programmed cell death 1; CD279) on tumor infiltrating lymphocytes (human) (UniProt Q15116); experiment: flow cytometry, tumour digest H3046 stained with anti-PD-1 clone EH12.2H7; percent of CD3+ cells
# [5] = target: PD-1 (programmed cell death 1; CD279) on tumor infiltrating lymphocytes (human) (UniProt Q15116); experiment: positive magnetic selection of REP TIL with EH12.2H7-coupled microbeads; sorted cells stained with secondary mIgG1-PE and aCD3 FITC
# [6] = target: PD-1 (programmed cell death 1; CD279) on tumor infiltrating lymphocytes (human) (UniProt Q15116); experiment: flow cytometry re-analysis of cells sorted on EH12.2H7 staining, tumour M1156
# [7] = target: PD-1 (programmed cell death 1; CD279) on tumor infiltrating lymphocytes (human) (UniProt Q15116); experiment: flow cytometry re-analysis of cells sorted on EH12.2H7 staining, tumour OV8074
# UniProt Q15116, sequence (Q15116 25-288): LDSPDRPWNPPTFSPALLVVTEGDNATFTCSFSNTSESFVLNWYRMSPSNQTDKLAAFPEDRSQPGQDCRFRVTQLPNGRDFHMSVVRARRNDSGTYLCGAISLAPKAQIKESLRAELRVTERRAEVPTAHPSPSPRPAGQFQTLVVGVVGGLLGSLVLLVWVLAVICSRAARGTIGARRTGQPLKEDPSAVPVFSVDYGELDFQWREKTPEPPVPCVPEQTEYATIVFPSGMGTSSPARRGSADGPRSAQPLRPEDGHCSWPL
Molecule,purity of PD-1+ TIL after magnetic selection [1],Pre-sort % PD-1+ (of CD3+) [2],Pre-sort % PD-1+ (of CD3+) [3],Pre-sort % PD-1+ (of CD3+) [4],purity of PD-1+ TIL after magnetic selection [5],Post-sort Purity % PD-1+ (of CD3+) [6],Post-sort Purity % PD-1+ (of CD3+) [7]
"CD279 (PD-1) Monoclonal Antibody (Clone-MIH4), eBioscience",> 85%,,,,,,
"anti-PD-1 antibody clone EH12.2H7 (antibody, from another filing, IgG1, V domains shown) VH: QVQLQQSGAELAKPGASVQMSCKASGYSFTSSWIHWVKQRPGQGLEWIGYIYPSTGFTEYNQKFKDKATLTADKSSSTAYMQLSSLTSEDSAVYYCARWRDSSGYHAMDYWGQGTSVTVSS VL: DIVLTQSPASLTVSLGQRATISCRASQSVSTSGYSYMHWYQQKPGQPPKLLIKFGSNLESGIPARFSGSGSGTDFTLNIHPVEEEDTATYYCQHSWEIPYTFGGGTKLEIK",,70%,93%,13%,> 85%,100%,98%
